Measured values published in US20090324700A1, “METHODS AND COMPOSITIONS FOR THE INHIBITION OF CATHEPSINS” (priority 2003, published 2009).

Molecular target: T1, human cathepsin K (Homo sapiens, UniProt P43235)
T1 construct: made in house
T1 sequence (P43235 115-329): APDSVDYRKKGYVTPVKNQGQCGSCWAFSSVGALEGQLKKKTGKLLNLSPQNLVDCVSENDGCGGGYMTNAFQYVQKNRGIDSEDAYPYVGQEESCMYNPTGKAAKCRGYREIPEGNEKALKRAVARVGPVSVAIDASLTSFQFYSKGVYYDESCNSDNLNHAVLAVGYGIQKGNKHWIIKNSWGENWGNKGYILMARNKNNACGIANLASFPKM
Assay: Protease specificity of Spi2A: cathepsin K
Format: biochemical
Details: protease 20 nM, Spi2A 200 nM, 1 h at 37° C; FIG. 6B
Protocol: Protease specificity of Spi2A. RelA^−/− MEFs were transduced with retrovirus encoding Spi2A with a C-terminal 3×FLAG epitope tag and Spi2A-3×FLAG purified using a method described previously (Cooley et al., 1998). Briefly, cells (3×10^9) were lysed and Spi2A-3×FLAG (75 μg) purified by batch Q-Fast Flow ion-exchange chromatography (Pharmacia Biotech) after elution at 160-220 mM NaCl followed by anti-FLAG antibody columns, performed according to manufacturer's instructions (Sigma-Aldrich). Spi2A-3×FLAG was dialysed into PBS and stored as aliquots at −80° C. until needed.
Proteases were purchases from the manufacturers (Calbiochem or Athens Research and Technology) except granzymes A and B which were purified as described (Hanna et al., 1993) and cathespin V and K, which were purified as described (Bromme et al., 1999; Linnevers et al., 1997). Proteases (20 nM) were incubated in the appropriate assay buffer with Spi2A at 200 nM (at least 10-fold excess of inhibitor to maintain pseudo-first order conditions) for 1 h at 37° C. Control samples included only the enzyme, without the inhibitor. At the end of 1 h protease activity was assayed. […] Substrate hydrolysis was measured in a fluorescence microtiter plate reader (Spectramax Gemini XS, Molecular Devices). Percentage inhibition was calculated from the residual enzyme activity compared to no Spi2A controls. […]

B1: Spi2A: murine Spi2A polypeptide, SEQ ID NO:2; purified as C-terminal 3×FLAG protein or expressed from MIGR1 retrovirus in cells and bone-marrow chimeras (protein, listed as Mus musculus)
chain: MAGVSPAVFGCPDVTLGRNTAVREVQENVTSVDSLTLVSSNTDFAFSLYRKLVLKNPDENVVFSPFSICTALALLSLGAKSNTLKEILEGLKFNLTETPEPDIHQGFRYLLDLLSQPGNQVQISTGSALFIEKHLQILAEFKEKARALYQAEAFTADFQQPLKATKLINDYVSNHTQGKIKELISGLKESTLMVLVNYIYFKGKWKNPFDPNDTFKSEFYLDEKRSVIVSMMKTGYLTTPYFRDEELSCTVVELKYTGNASAMFILPDQGRMQQVEASLQPETLRKWKNSLKPRMIHELRLPKFSISTDYSLEHILPELGIREVFSTHADLSAITGTKDLRVSQVVHKAVLDVAEKGTEAAAATGMAGVGCCAVFDFLEIFFNRPFLMIISDTKAHIALFMAKVTNPERSTNFPNGEGASSQRLESKRLCFGDPLCLIGQ
modifications: C-terminal 3xFLAG tag
notes: purified as C-terminal 3×FLAG protein or expressed from MIGR1 retrovirus in cells and bone-marrow chimeras
Inhibition of protease by Spi2A (percentage inhibition): extended to all of the lysosomal, papain-like proteases that were examined
